The labels stand for the following.
B1: ZNF263 (parent)
chain: QRTHTGEKPYKCPECGEIFAHSSN
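Further: lentivirally expressed fusions sorted by FACS into six bins by GFP to DsRed ratio, PSI derived from sequencing read proportions per bin multiplied by bin number.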

This data set covers variants of B1. The data set is described as follows: protein stability index of a GFP-peptide fusion (GPS, HEK-293T) (PSI 1-6); higher = more stable. The settings on record: c terminus: a fixed tail appended.
On to QRTHTGEKPYKCPEKGEIFAHSSN [C15K], for which the protein stability index stood at 4.75.

For the variant QRTHTGEKPYKCPEVGEIFAHSSN [C15V], the protein stability index was determined as 4.42.

With QRTHTGEKPYKCPEQGEIFAHSSN [C15Q], the protein stability index was 4.48. For QRTHTGEKPYKCPEDGEIFAHSSN [C15D], the protein stability index came out at 4.8.

QRTHTGEKPYKCPEPGEIFAHSSN [C15P]: the protein stability index amounted to 4.51. The figure for QRTHTGEKPYKCPEAGEIFAHSSN [C15A] is 4.3.

QRTHTGEKPYKCPEWGEIFAHSSN [C15W]: the protein stability index is 3.88. The figure for QRTHTGEKPYKCPEEGEIFAHSSN [C15E] is 4.82; for QRTHTGEKPYKCPEFGEIFAHSSN [C15F] it is 3.39; for QRTHTGEKPYKCPERGEIFAHSSN [C15R] it is 4.29. The figure for QRTHTGEKPYKCPEHGEIFAHSSN [C15H] is 4.09; for QRTHTGEKPYKCPEIGEIFAHSSN [C15I] it is 4.04; for QRTHTGEKPYKCPELGEIFAHSSN [C15L] it is 3.97. Turning to QRTHTGEKPYKCPENGEIFAHSSN [C15N], the protein stability index was 4.76. The figure for QRTHTGEKPYKCPEYGEIFAHSSN [C15Y] is 3.68. The figure for QRTHTGEKPYKCPEGGEIFAHSSN [C15G] is 4.96; for QRTHTGEKPYKCPETGEIFAHSSN [C15T] it is 4.63.

For QRTHTGEKPYKCPESGEIFAHSSN [C15S], the protein stability index is 4.29. The figure for QRTHTGEKPYKCPEMGEIFAHSSN [C15M] is 4.88; for QRTHTGEKPVKCPECGEIFAHSSN [Y10V] it is 3.93. Consider QRTHTGEKPSKCPECGEIFAHSSN [Y10S], for which the protein stability index amounted to 3.98. The result for QRTHTGEKPTKCPECGEIFAHSSN [Y10T] reads 4.55; that for QRTHTGEKPWKCPECGEIFAHSSN [Y10W], 3.46; that for QRTHTGEKPRKCPECGEIFAHSSN [Y10R], 3.79. The result for QRTHTGEKPYKCPECGVIFAHSSN [E17V] reads 2.6; that for QRTHTGEKPYKCPECGYIFAHSSN [E17Y], 4.23. The figure for QRTHTGEKPYKCPECGGIFAHSSN [E17G] is 2.53; for QRTHTGEKPYKCPECGAIFAHSSN [E17A] it is 4.67. With QRTHTGEKPYKCPECGKIFAHSSN [E17K], the protein stability index is 3.98. The figure for QRTHTGEKPYKCPECGCIFAHSSN [E17C] is 4.6; for QRTHTGEKPYKCPECGWIFAHSSN [E17W] it is 3.01. Regarding QRTHTGEKPYKCPECGMIFAHSSN [E17M], the protein stability index worked out at 3.27. The figure for QRTHTGEKPYKCPECGRIFAHSSN [E17R] is 3.38. The result for QRTHTGEKPYKCPECGNIFAHSSN [E17N] reads 3.83; that for QRTHTGEKPYKCPECGLIFAHSSN [E17L], 2.6. The result for QRTHTGEKPYKCPECGTIFAHSSN [E17T] reads 4.77; that for QRTHTGEKPYKCPECGDIFAHSSN [E17D], 3.13; that for QRTHTGEKPYKCPECGFIFAHSSN [E17F], 4.53. Regarding QRTHTGEKPYKCPECGHIFAHSSN [E17H], the protein stability index was 4.49. The figure for QRTHTGEKPYKCPECGIIFAHSSN [E17I] is 2.85; for QRTHTGEKPYKCPECGQIFAHSSN [E17Q] it is 3.86. The result for QRTHTGEKPYKCPECGSIFAHSSN [E17S] reads 4.02; that for QRTHTGEKPYKCPECGPIFAHSSN [E17P], 3.72. The figure for QRTHTGEKPYKCPECPEIFAHSSN [G16P] is 4.06; for QRTHTGEKPYKCPECTEIFAHSSN [G16T] it is 3.43; for QRTHTGEKPYKCPECNEIFAHSSN [G16N] it is 3.09. On to QRTHTGEKPYKCPECHEIFAHSSN [G16H], for which the protein stability index is 3.31. The figure for QRTHTGEKPYKCPECLEIFAHSSN [G16L] is 3.22. The figure for QRTHTGEKPYKCPECSEIFAHSSN [G16S] is 3.14; for QRTHTGEKPYKCPECCEIFAHSSN [G16C] it is 2.84. As for QRTHTGEKPYKCPECFEIFAHSSN [G16F], the protein stability index came out at 2.92.

With QRTHTGEKPYKCPECKEIFAHSSN [G16K], the protein stability index was 3.27. The figure for QRTHTGEKPYKCPECEEIFAHSSN [G16E] is 4; for QRTHTGEKPYKCPECDEIFAHSSN [G16D] it is 3.9. The result for QRTHTGEKPYKCPECWEIFAHSSN [G16W] reads 2.64; that for QRTHTGEKPYKCPECREIFAHSSN [G16R], 3; that for QRTHTGEKPYKCPECAEIFAHSSN [G16A], 3.54. The figure for QRTHTGEKPYKCPECVEIFAHSSN [G16V] is 3.61. Turning to QRTHTGEKPYKCPECQEIFAHSSN [G16Q], the protein stability index worked out at 3.23.

For the variant QRTHTGEKPYKCPECMEIFAHSSN [G16M], the protein stability index came out at 3.45. The figure for QRTHTGEKPYKCPECIEIFAHSSN [G16I] is 2.67; for QRTHTGEKPYKCPECYEIFAHSSN [G16Y] it is 3.18; for QRTHTGEKPYKRPECGEIFAHSSN [C12R] it is 4.2.

Consider QRTHTGEKPYKEPECGEIFAHSSN [C12E], for which the protein stability index is 4.53. As to QRTHTGEKPYKAPECGEIFAHSSN [C12A], the protein stability index was determined as 4.27.

Take QRTHTGEKPYKFPECGEIFAHSSN [C12F]: the protein stability index stood at 4.12. The result for QRTHTGEKPYKHPECGEIFAHSSN [C12H] reads 4.13; that for QRTHTGEKPYKQPECGEIFAHSSN [C12Q], 4.35; that for QRTHTGEKPYKYPECGEIFAHSSN [C12Y], 4.3. As for QRTHTGEKPYKTPECGEIFAHSSN [C12T], the protein stability index is 4.57. Consider QRTHTGEKPYKDPECGEIFAHSSN [C12D], for which the protein stability index was 5.18. The figure for QRTHTGEKPYKIPECGEIFAHSSN [C12I] is 3.6; for QRTHTGEKPYKLPECGEIFAHSSN [C12L] it is 3.77; for QRTHTGEKPYKGPECGEIFAHSSN [C12G] it is 3.98. As to QRTHTGEKPYKNPECGEIFAHSSN [C12N], the protein stability index worked out at 4.45. The figure for QRTHTGEKPYKMPECGEIFAHSSN [C12M] is 4.35; for QRTHTGEKPYKKPECGEIFAHSSN [C12K] it is 4.26; for QRTHTGEKPYKWPECGEIFAHSSN [C12W] it is 3.62. In the case of QRTHTGEKPYKVPECGEIFAHSSN [C12V], the protein stability index came out at 3.31. The figure for QRTHTGEKPYKPPECGEIFAHSSN [C12P] is 4.42; for QRTHTGEKPYKSPECGEIFAHSSN [C12S] it is 4.52; for QRTHTGEKPYKCPECGEIKAHSSN [F19K] it is 4.08. Take QRTHTGEKPYKCPECGEISAHSSN [F19S]: the protein stability index was 3.84.

Take QRTHTGEKPYKCPECGEIMAHSSN [F19M]: the protein stability index was 3.56.

Consider QRTHTGEKPYKCPECGEIHAHSSN [F19H], for which the protein stability index is 4.82. QRTHTGEKPYKCPECGEIWAHSSN [F19W]: the protein stability index worked out at 2.47. The figure for QRTHTGEKPYKCPECGEIDAHSSN [F19D] is 4.87; for QRTHTGEKPYKCPECGEIVAHSSN [F19V] it is 3.46. The result for QRTHTGEKPYKCPECGEIIAHSSN [F19I] reads 3.37. On to QRTHTGEKPYKCPECGEIAAHSSN [F19A], for which the protein stability index amounted to 4.38.

In the case of QRTHTGEKPYKCPECGEILAHSSN [F19L], the protein stability index worked out at 3.16. For QRTHTGEKPYKCPECGEIGAHSSN [F19G], the protein stability index was determined as 4.28. The result for QRTHTGEKPYKCPECGEIQAHSSN [F19Q] reads 3.83; that for QRTHTGEKPYKCPECGEITAHSSN [F19T], 4.1.

The record behind these values is the supplement of paper PMC10567573.
